Source: patent publication US20250179183A1
Several values for one entry are separate records, joined by “and”; a condition that tells them apart may be missing. Equal values may be shown once.

Tests used:
[1] = biological target: SARS-CoV-2 spike N439K variant (pseudovirus RVP-703) (SARS-CoV-2) (UniProt P0DTC2); experiment: cell-based or functional assay
[2] = biological target: SARS-CoV-2 spike South African Δ3 B.1.351 variant (pseudovirus RVP-724) (SARS-CoV-2) (UniProt P0DTC2); experiment: cell-based or functional assay

## REGN10987 (antibody)
[1]
  EC50 (pM) Neutralization, pseudovirus: 2260 pM and 2220 pM
[2]
  EC50 (pM) Neutralization, pseudovirus: 2.48 pM and 2.37 pM
